Test results: US20140212458A1

Tests used:
[1] = target: BG505.T332N Env on Env-pseudotyped virus (HIV-1 BG505 (clade A))
[2] = target: BG505.T332N Env on Env-pseudotyped virus (HIV-1 BG505 (clade A)); assay: cell-based or functional assay

Substance | IC50, neutralization of BG505.T332N pseudovirus, TZM-bl cells [1] [µg/mL] | IC50 of neutralization of BG505.T332N Env-pseudovirus (TZM-bl) [2] [µg/mL]
HJ16 (antibody) | 3.2 | 
F240 (antibody) | > 30 | > 30
b6 (antibody) | > 30 | > 30
45-46 (antibody) | 0.033 | 
PGT128 (antibody) | 0.011 | 
A32 (antibody) | > 30 | > 30
2G12 (antibody) | 0.79 | 
CH106 (antibody) | 2.7 | 
CH31 (antibody) | 0.014 | 
b12 (antibody) | > 30 | 30
3BC315 (antibody) | 1.26 | 
PGT126 (antibody) | 0.01 | 
PGT127 (antibody) | 0.037 | 
VRC06 (antibody) | 3.32 | 
X5 (antibody) | > 30 | > 30
3BNC60 (antibody) | 0.034 | 
PGT136 (antibody) | 25.7 | 26.6
PGT125 (antibody) | 0.007 | 
VRC06b (antibody) | 1.11 | 
PGT130 (antibody) | 0.027 | 

Substance | IC50, neutralization of BG505.T332N pseudovirus, TZM-bl cells [1] [µg/mL] | IC50 of neutralization of BG505.T332N Env-pseudovirus (TZM-bl) [2] [µg/mL]
F91 (antibody) | > 30 | > 30
1NC9 (antibody) | 0.251 | 
PGT122 (antibody) | 0.112 | 
PG16 (antibody) | 0.008 | 
CH01 (antibody) | 0.301 | 
VRC03 (antibody) | 0.554 | 
8ANC195 (antibody) | 0.139 | 
PGT121 (antibody) | 0.015 | 
PGT135 (antibody) | 2.23 | 
12A12 (antibody) | 0.05 | 
VRC01 (antibody) | 0.07 | 
PGT123 (antibody) | 0.028 | 
F105 (antibody) | > 30 | > 30
3BC176 (antibody) | 0.175 | 
CH103 (antibody) | 2.57 | 
PGV04 (antibody) | 0.066 | 
PGT145 (antibody) | 0.083 | 
7B2 (antibody) | > 30 | > 30
3BNC117 (antibody) | 0.041 | 
